According to patent WO2006003179A2 (dated 2006):
Values belong to the molecule of their own block, whether it stands above or below them.

Experiments:
[1] = biological target: recombinant soluble KIR2DL3 (entire extracellular domain, produced in E. coli) (human) (UniProt P43628); experiment: Biacore, immobilized KIR2DL3; second Ab GL183 alone (field of first Ab 1-6F1)
[2] = biological target: recombinant soluble KIR2DL3 (entire extracellular domain, produced in E. coli) (human) (UniProt P43628); experiment: Biacore competition, immobilized KIR2DL3; first Ab gl183, competitor (second Ab) 1-6F1; set-up: concentration or dose not given beside the values
[3] = biological target: recombinant soluble KIR2DL3 (entire extracellular domain, produced in E. coli) (human) (UniProt P43628); experiment: Biacore competition, immobilized KIR2DL3; first Ab gl183, competitor (second Ab) 1-7F9; set-up: concentration or dose not given beside the values
[4] = biological target: recombinant soluble KIR2DL3 (entire extracellular domain, produced in E. coli) (human) (UniProt P43628); experiment: Biacore competition, immobilized KIR2DL3; first Ab gl183, competitor (second Ab) DF200; set-up: concentration or dose not given beside the values
[5] = biological target: recombinant soluble KIR2DL3 (entire extracellular domain, produced in E. coli) (human) (UniProt P43628); experiment: Biacore, immobilized KIR2DL3; second Ab GL183 alone (field of first Ab 1-7F9)
[6] = biological target: recombinant soluble KIR2DL3 (entire extracellular domain, produced in E. coli) (human) (UniProt P43628); experiment: Biacore, immobilized KIR2DL3; second Ab GL183 alone (field of first Ab 1-4F1)
[7] = biological target: recombinant soluble KIR2DL3 (entire extracellular domain, produced in E. coli) (human) (UniProt P43628); experiment: Biacore, immobilized KIR2DL3; second Ab GL183 injected after first Ab 1-6F1
[8] = biological target: recombinant soluble KIR2DL3 (entire extracellular domain, produced in E. coli) (human) (UniProt P43628); experiment: Biacore competition, immobilized KIR2DL3; first Ab gl183, competitor (second Ab) 1-4F1; set-up: concentration or dose not given beside the values
[9] = biological target: recombinant soluble KIR2DL3 (entire extracellular domain, produced in E. coli) (human) (UniProt P43628); experiment: Biacore, immobilized KIR2DL3; second Ab GL183 injected after first Ab 1-4F1
[10] = biological target: recombinant soluble KIR2DL3 (entire extracellular domain, produced in E. coli) (human) (UniProt P43628); experiment: Biacore competition, immobilized KIR2DL3; first Ab gl183, competitor (second Ab) Pan2D; set-up: concentration or dose not given beside the values
[11] = biological target: recombinant soluble KIR2DL3 (entire extracellular domain, produced in E. coli) (human) (UniProt P43628); experiment: Biacore, immobilized KIR2DL3; second Ab GL183 injected after first Ab 1-7F9
[12] = biological target: recombinant soluble KIR2DL3 (entire extracellular domain, produced in E. coli) (human) (UniProt P43628); experiment: Biacore SPR, KIR2DL3 immobilized on CM5, antibody as analyte (bivalent binding), Example 3
[13] = biological target: recombinant soluble KIR2DL3 (entire extracellular domain, produced in E. coli) (human) (UniProt P43628); experiment: Biacore competition, immobilized KIR2DL3; first Ab DF200, competitor (second Ab) 1-7F9; set-up: concentration or dose not given beside the values
[14] = biological target: recombinant soluble KIR2DL3 (entire extracellular domain, produced in E. coli) (human) (UniProt P43628); experiment: Biacore, immobilized KIR2DL3; second Ab DF200 alone (field of first Ab 1-4F1)
[15] = biological target: recombinant soluble KIR2DL3 (entire extracellular domain, produced in E. coli) (human) (UniProt P43628); experiment: Biacore competition, immobilized KIR2DL3; first Ab DF200, competitor (second Ab) 1-6F1; set-up: concentration or dose not given beside the values
[16] = biological target: recombinant soluble KIR2DL3 (entire extracellular domain, produced in E. coli) (human) (UniProt P43628); experiment: Biacore competition, immobilized KIR2DL3; first Ab DF200, competitor (second Ab) 1-6F5; set-up: concentration or dose not given beside the values
[17] = biological target: recombinant soluble KIR2DL3 (entire extracellular domain, produced in E. coli) (human) (UniProt P43628); experiment: Biacore competition, immobilized KIR2DL3; first Ab DF200, competitor (second Ab) GL183; set-up: concentration or dose not given beside the values
[18] = biological target: recombinant soluble KIR2DL3 (entire extracellular domain, produced in E. coli) (human) (UniProt P43628); experiment: Biacore, immobilized KIR2DL3; second Ab DF200 alone (field of first Ab 1-6F5)
[19] = biological target: recombinant soluble KIR2DL3 (entire extracellular domain, produced in E. coli) (human) (UniProt P43628); experiment: Biacore competition, immobilized KIR2DL3; first Ab DF200, competitor (second Ab) Pan2D; set-up: concentration or dose not given beside the values
[20] = biological target: recombinant soluble KIR2DL3 (entire extracellular domain, produced in E. coli) (human) (UniProt P43628); experiment: Biacore, immobilized KIR2DL3; second Ab DF200 injected after first Ab 1-6F5
[21] = biological target: recombinant soluble KIR2DL3 (entire extracellular domain, produced in E. coli) (human) (UniProt P43628); experiment: Biacore, immobilized KIR2DL3; second Ab DF200 injected after first Ab 1-7F9
[22] = biological target: recombinant soluble KIR2DL3 (entire extracellular domain, produced in E. coli) (human) (UniProt P43628); experiment: Biacore, immobilized KIR2DL3; second Ab DF200 injected after first Ab 1-6F1
[23] = biological target: recombinant soluble KIR2DL3 (entire extracellular domain, produced in E. coli) (human) (UniProt P43628); experiment: Biacore, immobilized KIR2DL3; second Ab DF200 alone (field of first Ab 1-7F9)
[24] = biological target: recombinant soluble KIR2DL1 (entire extracellular domain, produced in E. coli) (human) (UniProt P43626); experiment: Biacore SPR, KIR2DL1 immobilized on CM5, antibody as analyte (bivalent binding), Example 3
[25] = biological target: recombinant soluble KIR2DL3 (entire extracellular domain, produced in E. coli) (human) (UniProt P43628); experiment: Biacore, immobilized KIR2DL3; second Ab DF200 alone (field of first Ab 1-6F1)
[26] = biological target: recombinant soluble KIR2DL3 (entire extracellular domain, produced in E. coli) (human) (UniProt P43628); experiment: Biacore competition, immobilized KIR2DL3; first Ab DF200, competitor (second Ab) 1-4F1; set-up: concentration or dose not given beside the values
[27] = biological target: recombinant soluble KIR2DL3 (entire extracellular domain, produced in E. coli) (human) (UniProt P43628); experiment: Biacore, immobilized KIR2DL3; second Ab DF200 injected after first Ab 1-4F1
[28] = biological target: recombinant soluble KIR2DL3 (entire extracellular domain, produced in E. coli) (human) (UniProt P43628); experiment: Biacore, immobilized KIR2DL3; second Ab Pan2D injected after first Ab 1-4F1
[29] = biological target: recombinant soluble KIR2DL3 (entire extracellular domain, produced in E. coli) (human) (UniProt P43628); experiment: Biacore, immobilized KIR2DL3; second Ab Pan2D alone (field of first Ab 1-4F1)
[30] = biological target: recombinant soluble KIR2DL3 (entire extracellular domain, produced in E. coli) (human) (UniProt P43628); experiment: Biacore, immobilized KIR2DL3; second Ab Pan2D alone (field of first Ab 1-6F1)
[31] = biological target: recombinant soluble KIR2DL3 (entire extracellular domain, produced in E. coli) (human) (UniProt P43628); experiment: Biacore, immobilized KIR2DL3; second Ab Pan2D injected after first Ab 1-7F9
[32] = biological target: T1, KIR2DS3 on transfected cells (human, UniProt Q14952 22-304); experiment: flow cytometry on cells transfected with KIR2DS3 (Figure 16)
T1 construct: whole, on cells
T1 sequence (Q14952 22-304): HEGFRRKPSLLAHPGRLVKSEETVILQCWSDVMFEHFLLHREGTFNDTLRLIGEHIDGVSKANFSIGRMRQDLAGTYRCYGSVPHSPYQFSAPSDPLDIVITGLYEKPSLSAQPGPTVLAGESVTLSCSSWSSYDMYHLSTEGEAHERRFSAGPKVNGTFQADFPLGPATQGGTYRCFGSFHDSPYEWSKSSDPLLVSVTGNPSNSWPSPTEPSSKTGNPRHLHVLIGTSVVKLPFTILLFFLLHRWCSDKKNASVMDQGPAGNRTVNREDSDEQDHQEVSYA

[33] = biological target: recombinant soluble KIR2DL3 (entire extracellular domain, produced in E. coli) (human) (UniProt P43628); experiment: Biacore, immobilized KIR2DL3; second Ab Pan2D injected after first Ab 1-6F1
[34] = biological target: recombinant soluble KIR2DL3 (entire extracellular domain, produced in E. coli) (human) (UniProt P43628); experiment: Biacore, immobilized KIR2DL3; second Ab Pan2D alone (field of first Ab 1-6F5)
[35] = biological target: recombinant soluble KIR2DL3 (entire extracellular domain, produced in E. coli) (human) (UniProt P43628); experiment: Biacore, immobilized KIR2DL3; second Ab Pan2D alone (field of first Ab 1-7F9)

RU of second antibody alone (RU1) [1]: 620 RU
% inhibition of second antibody binding [2]: 18%
% inhibition of second antibody binding [3]: 76%
% inhibition of second antibody binding [4]: 8%
RU of second antibody alone (RU1) [5]: 800 RU
RU of second antibody alone (RU1) [6]: 1240 RU
RU of second antibody after first antibody (RU2) [7]: 570 RU
% inhibition of second antibody binding [8]: 75%
RU of second antibody after first antibody (RU2) [9]: 330 RU
% inhibition of second antibody binding [10]: 40%
RU of second antibody after first antibody (RU2) [11]: 200 RU
Molecule: GL183 (antibody)

binding result [32]: no binding (tested: 1 μg/ml)
B2: human monoclonal antibody 1-7F9 (antibody, human IgG4, kappa, V domains shown)
VH: QVQLVQSGAEVKKPGSSVKVSCKASGGTFSFYAISWVRQAPGQGLEWMGGFIPIFGAANYAQKFQGRVTITADESTSTAYMELSSLRSDDTAVYYCARIPSGSYYYDYDMDVWGQGTTVTVSS
VL: EIVLTQSPVTLSLSPGERATLSCRASQSVSSYLAWYQQKPGQAPRLLIYDASNRATGIPARFSGSGSGTDFTLTISSLEPEDFAVYYCQQRSNWMYTFGQGTKLEIKR
notes: also called HuKIR 1-7F9; mAb 1-7F9

More lines, now with the values behind:

Molecule: murine monoclonal antibody DF200
Kd [12]: 2 nM
% inhibition of second antibody binding [13]: 62%
RU of second antibody alone (RU1) [14]: 1140 RU
% inhibition of second antibody binding [15]: 16%
% inhibition of second antibody binding [16]: 4%
% inhibition of second antibody binding [17]: 20%
RU of second antibody alone (RU1) [18]: 800 RU
% inhibition of second antibody binding [19]: 75%
RU of second antibody after first antibody (RU2) [20]: 760 RU
RU of second antibody after first antibody (RU2) [21]: 450 RU
RU of second antibody after first antibody (RU2) [22]: 760 RU
RU of second antibody alone (RU1) [23]: 770 RU
Kd [24]: 11 nM
RU of second antibody alone (RU1) [25]: 790 RU
% inhibition of second antibody binding [26]: 75%
RU of second antibody after first antibody (RU2) [27]: 210 RU

B1: murine monoclonal antibody NKVSF1 (Pan2D) (antibody, V domains shown)
VH: EVQLQQSGTVLARPGASVKMSCKASGYTFTSYWMHWMKQRPGQGLEWIGTIYPGNSDTNYNQKFKGKAKLTAVTSTNTAYMELSSLTNEDSAVYYCSRPTTATRSSAMDYWGQGTSVTVSS
VL: QIVLTQSPASMSASLGERVTMTCTASSSVSSSYLYWYQQKPGSSPKLWIYSTSNLASGVPARFSGSGSGTSYSLTISSMEAEDAATYYCHQYHRSPPTFGGGTKLEIKR
notes: Mouse mAb, bought from Serotec, cat
RU of second antibody after first antibody (RU2) [28]: 890 RU
RU of second antibody alone (RU1) [29]: 2400 RU
RU of second antibody alone (RU1) [30]: 990 RU
RU of second antibody after first antibody (RU2) [31]: 830 RU
binding result [32]: no binding (tested: 1 μg/ml)
RU of second antibody after first antibody (RU2) [33]: 1090 RU
RU of second antibody alone (RU1) [34]: 990 RU
RU of second antibody alone (RU1) [35]: 870 RU
